Holding throughout (format): biochemical
The nature of series [1]: Preparation of L-phosphinothricin by coupling glutamate dehydrogenase with alcohol dehydrogenase. As to conditions: 500 mM PPO, 750 mM isopropanol, TBADH, NADP+, GluDH cells 0.5 g/L, 35° C., pH 7.5, 12 h. Here is the method:
(§1) The reaction process is monitored by measuring the concentration of substrate in the reaction solution applying high-performance liquid chromatography (HPLC). HPLC analysis method is stated as follows: column model: Pntulips® QS-C18, 5 μm, 4.6 mm×250 mm. Mobile phase: 50 mM (NH4)2HPO4, added 1% of 10% tetrabutyl ammonium hydroxide, adjusted to pH 3.6 with 50% phosphoric acid(mass fraction), added 8% acetonitrile. Detective wave length is 205 nm; flow rate is 1.0 mL/min. Column temperature is 40° C.
(§2) The enantiomeric excess and concentration of product are determined through pre-column derivatization high-performance liquid chromatography; the specific analysis method is stated as follows:
(§3) (1) HPLC condition: column model: Pntulips® QS-C18, 5 μm, 4.6 mm×250 mm. Mobile phase: 50 mM Sodium acetate: Acetonitrile=8: 0.5 (v/v). Detective wave length: 338 nm. Flow rate: 0.85 mL/min. Column temperature: 30° C.
(§4) (2) Derivatization reagent: Weigh 0.03 g phthalaldehyde and 0.1 g N-acetyl-L-cysteine, and use 400 uL ethanol for solubilization; after that, add 4 mL 0.2 mol/L borate buffer (pH 9.8) and shake for dissolution prior to storage in the fridge under the temperature of 4° C. (no more than 4 days).
(§5) (3) Derivatization reaction and analysis: Add 150 μL derivatization reagent into 100 μL sample, mix and incubate at 25° C. for 5 min, and then inject 20 μL for analysis.
Culture recombinant E. coli expressing glutamate dehydrogenase (LsGluDHp-A175G, SEQ ID NO. 7) and alcohol dehydrogenase (TBADH, WP_041589967.1) with method in Step 3 of Embodiment 1; proceed with centrifugal collection of cells and ultrasonic cell disruption to prepare crude enzyme solution.
The final volume of the reaction is 30 mL; each sample contains 500 mM substrate PPO, 750 mM isopropanol, 250 mM (NH4)2SO4 and 0.5 mM NADP^+. Concentration of glutamate dehydrogenase cells (dry weight) is 0.5 g/L; concentration of alcohol dehydrogenase cells (dry weight) is 2.5 g/L. Use water bath to control the reaction temperature at 35° C.; titrate ammonia to control pH at 7.5 during the reaction process. […]

Series [2] in a line: Preparation of L-phosphinothricin by coupling glutamate dehydrogenase with glucose dehydrogenase. As to conditions: 500 mM PPO, NADP+, GluDH cells 0.5 g/L, 35° C., pH 7.5, 6 h. Here is the method:
as §1, §2, §3, §4, §5
Culture recombinant E. coli expressing glutamate dehydrogenase (PpGluDH) and glucose dehydrogenase (BsGDH-2M, SEQ ID NO. 21) with method in Step 3 of Embodiment 1; proceed with centrifugal collection of cells and ultrasonic cell disruption to prepare crude enzyme solution.
(§6) The final volume of the reaction is 30 mL; each sample contains 500 mM substrate PPO, 600 mM glucose, 250 mM (NH4)2SO4 and 0.5 mM NADP^+. Concentration of glutamate dehydrogenase cells (dry weight) is 1.0 g/L; concentration of glucose dehydrogenase cells (dry weight) is 1.25 g/L. Use water bath to control the reaction temperature at 35° C.; titrate ammonia to control pH at 7.5 during the reaction process. Use non-chiral HPLC to determine residual concentration of PPO after reaction for 6 h; meanwhile, use pre-column derivatization HPLC to determine the concentration and ee value of formed L-phosphinothricin.
as §6, with “0.5” for “1.0”
as §6, with “NAD^+.” for “NADP^+.”, “1.25” for “1.0”
The final volume of the reaction is 30 mL; each sample contains 500 mM substrate PPO, 600 mM glucose, 250 mM (NH4)2SO4 and 0.5 mM NAD^+. Concentration of glutamate dehydrogenase cells (dry weight) is 1.25 g/L; concentration of glucose dehydrogenase cells (dry weight) is 1.25 g/L. Use water bath to control the reaction temperature at 35° C.; titrate ammonia to control pH at 7.5 during the reaction process. […]

The nature of series [3]: Standard enzyme activity measurement toward PPO, crude enzyme (per volume fermentation broth). Here is the method: The preserved recombinant E. coli is streaked onto the plate for activation. Single colonies are picked and inoculated into 5 mL LB liquid medium containing 50 μg/mL kanamycin and cultured at 37° C. for 12 h. The culture is transferred to 50 mL fresh LB liquid medium containing 50 μg/mL kanamycin at a 2% inoculum, and then incubated at 37° C. until the OD600 reaches 0.6; after that, add IPTG to a final concentration of 0.5 mM, and then proceed with induction culture under the temperature of 18° C. for 16 h.
After the cultivation, the culture is centrifuged at 10000 rpm for 10 min; discard supernatant, and collect cells. The harvested cells are washed for 2 times using pH 7.5 50 mM phosphate buffer. After that, the cells are re-suspend into the pH 7.5 phosphate buffer and disrupted ultrasonically (400W for 30 times, Ultrasonic time is 3 s, and the interval is 7 s). The cell disrupted solution is centrifuged at 12000 g for 5 min at 4° C. to remove the precipitate, and the supernatant obtained is the crude enzyme containing recombinant glutamate dehydrogenase
The standard enzyme activity measurement system: Appropriate amount of enzyme, 100 mM substrate, 10 mM coenzyme (NADH or NADPH), 500 mM NH4^+ ((NH4)2SO4); total system volume is up to 400 μL; reaction medium is pH 7.5 phosphate buffer. 35° C. reaction for 10 min; after that, add 40 uL 5 M NaOH to terminate reaction.
Definition of enzyme activity unit: The quantity of enzyme as required by generation of 1 μmol L-phosphinothricin per minute under standard reaction conditions.
Proceed with induction culture of constructed mutants, and prepare crude enzyme solution.

B1: LsGluDHp-A175G: LsGluDHp mutant A175G, SEQ ID NO. 7 (protein)
chain: MTITTVSNEQLAKEYVDGVFEQLKQQNCHQAEFLQAAEEIFISLVPVFVQHPEYIKANILSRIVEPDRIISFRVAWQDDHNQVQVNRGYRVQYSNVMGPYKGGLRFHPSVNESIIKFLGFEQIFKNALTGQPIGGGKGGSNFDPKGKSDSEIMRFCQAFMTELYRHIGPDVDVPGGDIGVGAREVGYLWGQYKRLTKASESGVLTGKTPGYGGSLARKEATGYGTVYFVNEMLKDVNDSFEGKTVVVSGSGNVSTYAIEKAQQYGAKVVACSDSSGYIYDPEGLDLDVIKEIKEVKGDRISTYVSYRPNATFTNGCTGIWTIPCDIALPCATQNEINGESARTLISNGVKAIGEGANMPSDLEAINEFLNAGVLFGPAKAANAGGVAVSALEMAQDSSRVFWSFEEVDAKLHQIMKDIYSDSKAAAEKYGFPGNLVMGANIAGFIKVADGMLTEGIY
modifications: Lysinibacillus sphaericus glutamate dehydrogenase mutant
As to B1, in series [1], the “concentration of formed L-phosphinothricin” value is listed as 81.3 g/L, the “residual PPO” value came out at 1.3 mM and the substrate conversion was determined as 99.7%. Moreover, in series [2], the “concentration of formed L-phosphinothricin” value was found to be 82.4 g/L, the “residual PPO” value amounted to 0 mM and the substrate conversion is 100%. This molecule also yielded a Fold change in series [3] of 1641. The “Enzyme activity of mutants (U/mL)” value in series [3] (toward PPO, crude enzyme, standard system, N.D. = no detectable activity) is recorded as 34.47 U/mL.

For the origin of these results see US10865391B2, “Glutamate dehydrogenase mutants and their application in preparation of L-phosphinothricin” (ZHEJIANG UNIVERSITY, priority 2018, dated 2020).
